Drawing on the NTF2 design screens of Basanta et al. (2020), this text covers protease stability score for 34 sequences.

The nature of the data set: protease stability score; higher = more stable; yeast display proteolysis, trypsin and chymotrypsin.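 Further: log10 excess protease needed over predicted unfolded state with 0 meaning unfolded.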

As to “DQEEVEQAKKFVEAQKSGDPDQLNDLADPNVELEIGDQELHGREDLHDWANHQNKHMRMEVRDVKAQDKPNHVEVHIRFVINVNGKPRDTTVEVDFSAENGHIKKIKFQIDHHELRKLEK”, the protease stability score was -0.154.

The sequence “DQEEVRRVVEKVAKAVQNGDATRLRDMGKDGVKYRRVEEETHGPEAVEKVLKYLRKQGVKLQVKHVEVEGNTAQTEVDYRRGDETLTVHAKAKVQGGRIDEVQVDLDEKAKKYVDHG” displayed a protease stability score of 0.138.

In turn, “DQEHVKRRADTAMKAIQNGDPDEAVKQMDPDAKMRVGDHEITGREDVRRYVETLHRRVDHNHILSLTHHGETVVFNAVVKVNGRNVTVNWVLKFHNGRLKQVDINPDEEKRFQS” gave a protease stability score of 0.079.

In turn, “DQEHYEKIAKHMSDVLRTGNPDDMLRMIDPNARLEVGDKRWNGRHKIKKFLETFVKSADHVKVRHVEVSGNDITLDVVAHVNGRSVKFNVHANVHNGRIKEVKFDPRAWRDLQT” showed a protease stability score of 0.505.

Regarding “DQEKFERMAHKANRALEQNDEETFDELADENARMIYGDKRYTGRERVREAVQEIDKRVDHVQVDRVNVHGERAQINAVFHFNGKTQRDNVNMRFSNGKLQEMRFDPDVIRNLEE”, the protease stability score is -0.131.

“DQEKKATRFARKLIHDIRTNDEEHLVDLADPNVKVQYGDKSYHGREQFKKWWKDLMDQADHVDVKVRDLKVDGNKFVLVYSYVMNHNGQKREVEMNVSAKDKNGRINIQSIQMG”: the protease stability score was 0.301.

Regarding “DQEKLETLARQVFDAFREGDEETFRRLADPNVTAVYGDQKYRGRERVAKWLKDLANQIDHLQLNDVTIQGEKMHFDATVRINGKNRKLVMIVEAENGTLKRVVLSHG”, the protease stability score came out at 0.166.

Turning to “DQEKLQSYVKQYETNDESKLKKNMDENARVDIGDRRITGMEKAADILRHFMEQADHVKLDRMEVQGNHATVDVTAVVNGQKLDYKFVIHVHNGKVKRVEWRVTSEENQKTYDKIVG”, the protease stability score came to 0.537.

“DQEKNNHDAKKWVKNLRTGNEDELQRLFDEDARFNYGDKTVTGREQLQEWAHRMQRRIDSVDVRSVSQHGDKMNIDVVVRVDGRDRRFIFRAEIHNGRIKNAWMEDT” had a protease stability score of 0.497.

As to “DQELRDQVERLLHLEKHGDNDEVLRQFDPNAKAQVGDTRYHGMTTAVRDMVRQQNEARFSFEIHHVSVSGDRVVIDAVYVKDHNGKPSTRRVHIQMHFRNGKVQERRQNDDG”, the protease stability score was determined as 0.782.

As to “DQENLDVLRRLWEALESGNPDKYSQLIDPNAEVVVGDKTYEGKENLKQEIRTERDEMRKEIDWKSMSVHNGQANAEAKIRSNHNGDPREMVVTARARFHNGKLQNYEQHVDK”, the protease stability score is -0.325.

Sequence “DQENLELMNRLLEAISSNDESKFRRLVDPNVRVVIGDEQYHGRETLQKLLRDHNEHSRNDEHIHRVELHNGRVNMDVTREVDHNGRPQTDKFEIVATANNGKAVRMRFERTS” gave a protease stability score of -0.164.

“DQEQAEETQKKWQEVVEKGDEKKAKKIYDPNGQWQDADETHQGYEIVIKMMRRAQKKGIEFQVRRAEVEGDRLQVDYDMRLGDKTVTFTVQMEVQGGHVKVVRVEVTEEAKKLLKEG” showed a protease stability score of 1.11.

“DQEREMQEWYEKLVRNYENNDRDRLNELLDPNAQFNVGDQTFHGRENAKKWLKTMVDKVDSVEFDLRRLHVHGNKVVFHANVRYRVNGTDTTVDVVIVARVDNGRLRVEKVEYG” returned a protease stability score of 1.28.

As for “DQERNEQAKKLLDIINTGDEHKVKDMFDPNASIKVGDHTLHGREEIAKHYRREKDESRYQVDRVDFKAHGEKVRVSVKYTFRHNGKPLTATVEYNFRMHNGRIKDLSVRFDEQRQRDRDS”, the protease stability score worked out at 0.117.

In turn, “DQEVAETMMERWQKAVQKGDPKEVQEVYDPNVTWKDVDEEHQGKEQVVKQMRKVQKQGIEFQIRRAEVEGDRAQAVYDVKLGNLTVTFTVEMTVRGGRVQEVRVEMDEEAKKLVKKG” showed a protease stability score of 0.136.

In turn, “DQEVREYIKRVYSTGDPDELNKLIDKDVRMRVGDKEVEGRETVQTIMRDWMTRVDDIKVHSYDVRGNKANYDAQYVFDGRSARFVIHIEFHNGRVKHVVVEATNEEVKQLLRDMLS” displayed a protease stability score of 1.33.

Sequence “DQHAKRLFDEVVSAIKDGDPHQVKKQLDKNVRARVGDKTISGRETFAQQRKTERDEIEWDVEDYKADVNGDHIKVDMKVKSEHNGRPTSDKIDVDVQWHNGHVVRMEFKETR” had a protease stability score of -0.392.

The sequence “DQHDAERMNRVFEQNNEEELHQLMDPNVEVTVGNKRVKGRERAKKLFKRLVTNIDHVSYRSVNDDGDKLELKFVAVINGQTYHLKIEVTLHNGKVKSIHLDARDEKLKHLLDEWLH” returned a protease stability score of 1.39.

In turn, “DQHEQQKLAENVQKVLRKGDESRFQRLVDPNAKMTYGDKSLTGHERFRKWMQEFRHHADHVEFKEVSIHNGKLNMHAVIDVNGHKQTFVMHFQFHNGTVQHVEQTQT” registered a protease stability score of 0.289.

Consider “DQHLEDVARQMQEVEKHNDPEEVSKQFDPNAHARYGDKEVHGHHQFKEQAKRRQTKAQFKVDKYSVSVDNGRVSMSRQYVNDHNGKPRTQTDTAHMEVHDGRITDVKYQSTS”, for which the protease stability score was -0.139.

In turn, “DQHVEDVARKFINAMQTGDPDRLKELFDPNARQQVGDTVVTGREHAAKKWKEWVDEMEVHVQLRSIDVRGDKATLRFKLEVRVNGKPSQQDVTMVIHMHNGRAVDVKLSIDERDKKEIDS” returned a protease stability score of 1.42.

Turning to “DQKDAKRATEILKNLQEGDWSEVVRQADPNAEIKVGDKVYNGMEHYAEHMHRKVEHSRIRIEVETVKDHNGVIHIKFHIEYKVNGHPRSNTQNINFYLNNGKVRSIDVQVPEEDLEKEHK”, the protease stability score was 0.252.

On to “DQKKLKEQIKELWDALRTGDPQRAADLADPNARIQVGDKEITGREKFREHVKENKERIDRFTINDFKVQGDKARVDFHYEVNGQHRRVDATIVMRNGHIVSAQFDSQ”, for which the protease stability score was 0.717.

For “DQKKQQEVLEQWSKNDPRDLRKQADKDVRVQIGDTTYHGREDAQDALYTLAKRVDHFKYQHIETEGDHIRVDLVVNVNGREYQLTFEAQFHNGRLKTLEMQVRDEDQHKRLQEQLD”, the protease stability score is -0.22.

“DQKVNEFFKHVVKVEENGDTDKYRDNFDKDARAVYGDKRVTGNDELADTMRRTRHDMKYDVRSMDVQVRNGRVTVDVKVDVRVDGKPHSLKETIEMEVDNGKVKEVRVDFDPDQRRKVER” had a protease stability score of -0.188.

“DQNDRAEEFFKHWQRILTKNDPDEARKQMDKDVNVVYGDKRYHGREEVVKYLRDNMDRVDSIRVKLDDFKVDNGKATFHARFRQTHNGKDEQHNVVIVAQFKNGKLRAQSYHES” came in with a protease stability score of 1.01.

“DQQDVDRFTEFLEAVERGDEDRLRELMDKDAKQKVGDKTIEGSEKQVNELNDRARRMRIVLEVHDVKVHNGRLEARADLLVNVNGQPVRDDVVVRVQVHNGKITHVEMHFPEEFKRQMRR” displayed a protease stability score of 0.858.

For “DQQHTASKVLSDMVKAIQDGDEDHISEQADENVKIRIGDKEYHGKENARRMLKEIQHQVDHISVEVKSVSSHNGRVNVRAEVQMRFNGRSTSYDVTAIFRYNNGQLRLYSVSAR”, the protease stability score stood at 0.242.

On to “DQQKEAEKFARDMRRALDTGDERDVANLFPPDAKLRYGDKSFHGMDDIFKWVVTVLRQADHIHFQVRSVRDQGDKADIEFELRYDVNGQDRSRIFHAEVRHNGDNVQVEMNVEK”, for which the protease stability score was 0.326.

Consider “DQQTDAKEHAETVNKVLTHNDPNKLRELFDEDARMRVGDKEYRGQEQVDHVLKEIADRVDHVDVKLESVSLENGSVKVVIRAVFDDNGRKNDVHIDLVAVIDNGDLYIKEIRFE”, for which the protease stability score stood at 0.301.

“DQRDLEHVNHVLQTGDPDQFRDLVDPNARIRVGDKTIHGRENVLTKYRRLMEQADHLQIDSIRNHGEFVVFDFRMTVNGRQVDAEVNIHVKDGQIKEIEIRFRSEEQEDRWRKQAD” returned a protease stability score of 1.42.

In turn, “DQRDQRKANEIIKTNDESKLAKQADKDARLVVGNKEYHGKEQVQHFADQLEKMFDHLEITHYDSHGENFNVVAVMDVNGQRVQYYWRFRVHNGQFKYIEFRARDEETQKTIHRLLG” gave a protease stability score of 0.606.

“DQRDVEKIATKLSEVVRTGDPHEFAKMADPNAKVEVGDKSWRGHEEIRDWLKQITDEADSIHVDSVTAQGDKIDMTITVDFNGKRVQFDIKIQMENGRIKKMKLDPDQQRKLER” gave a protease stability score of 1.04.
